Here are results for twelve substances from patent US20220251198A1.

What is called Kd is the equilibrium constant for the complex coming apart.

Assay [1] concerns the target human FcγRIIA_131R extracellular domain (human) (UniProt P12318). The experiment in a line: SPR (Biacore), FcγR ECD analyte; N=1.
The target of assay [2] is human FcγRIIb extracellular domain (human) (UniProt P31994). The experiment in a line: SPR (Biacore), FcγR ECD analyte; N=1.
In assay [3] the target is human FcγRI extracellular domain (human) (UniProt P12314). The experiment in a line: SPR (Biacore), FcγR ECD analyte; N=1. (In general: SPR reads the build-up and loss of mass on a sensor chip optically.)
Chain of human FcγRI extracellular domain (human) (P12314 16-292): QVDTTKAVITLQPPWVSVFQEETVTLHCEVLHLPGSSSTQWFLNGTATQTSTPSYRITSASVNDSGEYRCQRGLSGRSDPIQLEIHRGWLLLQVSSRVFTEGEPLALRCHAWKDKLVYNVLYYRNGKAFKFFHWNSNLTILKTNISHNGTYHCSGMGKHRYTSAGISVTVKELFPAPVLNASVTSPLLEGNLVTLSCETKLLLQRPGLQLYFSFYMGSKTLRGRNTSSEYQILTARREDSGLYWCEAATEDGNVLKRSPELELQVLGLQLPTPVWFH
Assay [4] addresses human FcγRIIA_131H extracellular domain (human) (UniProt P12318). The experiment in a line: SPR (Biacore), FcγR ECD analyte; N=1.
The target in assay [5] is human FcγRIIIA_158V extracellular domain (human) (UniProt P08637). The experiment in a line: SPR (Biacore), FcγR ECD analyte; N=1.
Chain of human FcγRIIIA_158V extracellular domain (human) (P08637 17-208 F176V): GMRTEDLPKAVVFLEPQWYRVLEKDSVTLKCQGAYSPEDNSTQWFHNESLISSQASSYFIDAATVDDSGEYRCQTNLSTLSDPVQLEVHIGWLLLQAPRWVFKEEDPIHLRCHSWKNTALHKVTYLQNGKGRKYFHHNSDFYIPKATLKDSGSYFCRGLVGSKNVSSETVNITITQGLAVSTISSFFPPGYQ
The target of assay [6] is human FcγRIIA_131R extracellular domain (human) (UniProt P12318). The experiment in a line: SPR at 25 C, antibody captured on Protein A, FcγR ECD analyte, steady state.
Chain of human FcγRIIA_131R extracellular domain (human) (P12318 34-217 H167R): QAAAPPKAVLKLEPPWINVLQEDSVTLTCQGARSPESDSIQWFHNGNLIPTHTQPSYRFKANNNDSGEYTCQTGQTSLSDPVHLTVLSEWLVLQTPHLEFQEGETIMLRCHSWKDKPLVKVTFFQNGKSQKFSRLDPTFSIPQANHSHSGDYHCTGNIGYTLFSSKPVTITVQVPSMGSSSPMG
In assay [7] the target is human FcγRIIIA_158F extracellular domain (human) (UniProt P08637). The assay is described as above.
Chain of human FcγRIIIA_158F extracellular domain (human) (P08637 17-208): as the sequence (P08637 17-208 F176V) above, with V160F counted along it
Assay [8] has as its target human FcγRIIA_131H extracellular domain (human) (UniProt P12318). The description is as above.
Assay [9] deals with human FcγRIIIA_158F extracellular domain (human) (UniProt P08637). The experiment in a line: SPR (Biacore), FcγR ECD analyte; N=1.
Assay [10] concerns the target human FcγRIIIA_158V extracellular domain (human) (UniProt P08637). The experiment in a line: SPR at 25 C, antibody captured on Protein A, FcγR ECD analyte, steady state.

Chain of human FcγRIIA_131H extracellular domain (human) (P12318 34-217): as the sequence (P12318 34-217 H167R) above, with R134H counted along it
Chain of human FcγRIIb extracellular domain (human) (P31994 43-217): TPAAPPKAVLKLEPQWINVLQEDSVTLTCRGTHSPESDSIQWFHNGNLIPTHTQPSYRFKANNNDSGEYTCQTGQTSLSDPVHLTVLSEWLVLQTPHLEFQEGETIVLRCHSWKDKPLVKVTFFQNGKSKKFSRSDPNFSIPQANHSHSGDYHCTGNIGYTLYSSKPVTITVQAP

Turning to CD200R antibody IgG1 P331S + S267G, the dissociation constant (Kd) in [1] was found to be 770 nM; in assay [2], 4380 nM; in [3] it was 0.142 nM; in assay [4] it was 5200 nM; in assay [5], 2080 nM.
As for IgG1 Control Antibody, the Kd in assay [6] was 600 nM; in assay [7], 1000 nM; in [8] it was 500 nM.
Take CD200R antibody IgG1 N325S + L328F: the Kd is 60 nM in assay [1]; 275 nM in assay [2]; 0.0687 nM in [3]; 2640 nM in assay [4]; 7350 nM in assay [5].
As for CD200R antibody IgG1 S267G, the Kd was found to be 530 nM in [1]; 3410 nM in [2]; 4500 nM in [9]; 0.131 nM in assay [3]; 3130 nM in [4]; 730 nM in assay [5].
With CD200R antibody IgG1 A330S + S267G, the Kd amounted to 820 nM in assay [1]; 4990 nM in assay [2]; 10800 nM in assay [9]; 0.168 nM in [3]; 3310 nM in [4]; 1660 nM in [5].
With Hu IgG1 (antibody), the dissociation constant (Kd) was found to be 1030 nM in assay [1]; 4200 nM in assay [2]; 2590 nM in assay [9]; 0.0552 nM in assay [3]; 710 nM in assay [4].
Consider CD200R antibody IgG1 K322A, for which the Kd in assay [1] was found to be 820 nM; in [2], 3410 nM; in [9], 2580 nM; in assay [3] it was 0.0305 nM; in assay [4] it was 980 nM.
Consider “CD200R antibody IgG1 A330S + P331S + S267G”, for which the Kd turned out to be 4300 nM in [2]; 9800 nM in assay [9]; 0.511 nM in assay [3]; 5100 nM in assay [4]; 2480 nM in [5].
IgG4 PAA Control Antibody registered a Kd in assay [10] of 8900 nM.
As for CD200R antibody IgG1 P331S, the Kd in assay [1] was 1140 nM; in assay [2] it was 4640 nM; in [9] it was 3110 nM; in assay [3], 0.0543 nM; in assay [4], 1150 nM; in [5], 450 nM.
In the case of Human IgG4P control antibody, the Kd in [1] is 2890 nM; in assay [2], 3310 nM; in [3], 0.385 nM; in assay [4], 5120 nM; in assay [5] it was 5470 nM.
For CD200R antibody IgG1 K322A + S267G, the Kd in [1] came to 660 nM; in assay [2], 4430 nM; in assay [9] it was 9990 nM; in assay [3], 0.0705 nM; in [4], 5020 nM; in assay [5], 1650 nM.
